The experiment deals with EstN7, cold active family IV (hormone sensitive lipase family) esterase from Bacillus cohnii strain N1 (Bacillus cohnii strain N1). In words: SEC; size exclusion chromatography of purified EstN7 in solution (supplementary figure S1). For orientation: In gel filtration, larger molecules generally elute earlier.

“EstN7, cold active family IV (hormone sensitive lipase family) esterase from Bacillus cohnii strain N1 (enzyme)” came in with a stoichiometry N of 2.

As a reminder, the stoichiometry N is the number of molecules, sites or subunits per partner or assembly.
